Data from PMC3567102.

Target: T1, wild-type Mtd (major tropism determinant), Mtd-GST fusion protein (Bordetella bronchiseptica bacteriophage), Q775D6
T1 chain: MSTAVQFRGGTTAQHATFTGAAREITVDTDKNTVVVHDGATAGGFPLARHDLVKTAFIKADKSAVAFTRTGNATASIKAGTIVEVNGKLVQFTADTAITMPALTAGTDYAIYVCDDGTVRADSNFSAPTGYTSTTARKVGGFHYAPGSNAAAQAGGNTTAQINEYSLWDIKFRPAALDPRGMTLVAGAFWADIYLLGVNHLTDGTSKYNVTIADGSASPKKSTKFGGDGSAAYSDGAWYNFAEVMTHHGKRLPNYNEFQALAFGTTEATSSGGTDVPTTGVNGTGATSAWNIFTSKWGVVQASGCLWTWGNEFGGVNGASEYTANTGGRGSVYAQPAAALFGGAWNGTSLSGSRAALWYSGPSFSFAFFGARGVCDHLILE
Experiment: SEC; size exclusion chromatography of purified Mtd-GST fusion proteins after dialysis into PBS
Conditions: remark: other sources report otherwise

B1: wild-type Mtd (major tropism determinant), Mtd-GST fusion protein, Q775D6 1-381 (natural protein)
chain: T1 chain
  stoichiometry N: 6
